Results taken from US20190092839A1 (INSTITUTE FOR BASIC SCIENCE, published 2019).

Target: T1, iRFP-pMagH-C-term VHHActin
T1 construct: not shown: iRFP fluorescent protein of the piRFP construct (Addgene 31857)
Assay: inferred from relocalisation of fluorescence in HeLa cells after 488 nm light (nMagH with pMagH)

T1 sequence (chain, as listed by the source): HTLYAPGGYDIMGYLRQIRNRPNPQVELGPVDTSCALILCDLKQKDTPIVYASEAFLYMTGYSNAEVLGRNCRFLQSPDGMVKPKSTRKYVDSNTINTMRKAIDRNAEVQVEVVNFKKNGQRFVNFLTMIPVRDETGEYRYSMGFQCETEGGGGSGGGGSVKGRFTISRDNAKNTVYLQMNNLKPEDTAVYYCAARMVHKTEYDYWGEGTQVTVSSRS

B1: N-term VHHActin-nMagH-mCherry (other)
chain: MAQVQLVESGGGLTQAGGSLRLSCATSGLIFSAFGMGWFRQAPGKEREFVGGINWRGSTNYGDFGGGGSGGGGSHTLYAPGGYDIMGYLDQIGNRPNPQVELGPVDTSCALILCDLKQKDTPIVYASEAFLYMTGYSNAEVLGRNCRFLQSPDGMVKPKSTRKYVDSNTINTIRKAIDRNAEVQVEVVNFKKNGQRFVNFLTIIPVRDETGEYRYSMGFQCETE
notes: not shown: mCherry red fluorescent protein of the pmCherry construct (engineered)
binding result: binds
